Patent US7186697

Target: recombinant HIV-1 gp120 (American Biotechnology, Inc.) (HIV-1)
Experiment: ELISA on gp120-coated plates, culture medium

Fab105-Protamine fusion protein (from UniProt P04553 1-51)
binding activity against HIV gp120 in culture medium (µg/ml/24 hours): 0.1
